Sequences and labels used below:
B1: Cytotoxicity-associated immunodominant antigen (Helicobacter pylori), P55980 (parent)
chain: MTNETIDQTRTPDQTQSQTAFDPQQFINNLQVAFIKVDNVVASFDPDQKPIVDKNDRDNRQAFDGISQLREEYSNKAIKNPTKKNQYFSDFIDKSNDLINKDNLIDVESSTKSFQKFGDQRYQIFTSWVSHQKDPSKINTRSIRNFMENIIQPPIPDDKEKAEFLKSAKQSFAGIIIGNQIRTDQKFMGVFDESLKERQEAEKNGGPTGGDWLDIFLSFIFNKKQSSDVKEAINQEPVPHVQPDIATTTTDIQGLPPEARDLLDERGNFSKFTLGDMEMLDVEGVADIDPNYKFNQLLIHNNALSSVLMGSHNGIEPEKVSLLYAGNGGFGDKHDWNATVGYKDQQGNNVATLINVHMKNGSGLVIAGGEKGINNPSFYLYKEDQLTGSQRALSQEEIRNKVDFMEFLAQNNTKLDNLSEKEKEKFQNEIEDFQKDSKAYLDALGNDRIAFVSKKDTKHSALITEFNNGDLSYTLKDYGKKADKALDREKNVTLQGSLKHDGVMFVDYSNFKYTNASKNPNKGVGATNGVSHLEAGFNKVAVFNLPDLNNLAITSFVRRNLENKLTAKGLSLQEANKLIKDFLSSNKELAGKALNFNKAVAEAKSTGNYDEVKKAQKDLEKSLRKREHLEKEVEKKLESKSGNKNKMEAKAQANSQKDEIFALINKEANRDARAIAYTQNLKGIKRELSDKLEKISKDLKDFSKSFDEFKNGKNKDFSKAEETLKALKGSVKDLGINPEWISKVENLNAALNEFKNGKNKDFSKVTQAKSDLENSVKDVIINQKVTDKVDNLNQAVSVAKAMGDFSRVEQVLADLKNFSKEQLAQQAQKNEDFNTGKNSELYQSVKNSVNKTLVGNGLSGIEATALAKNFSDIKKELNEKFKNFNNNNNGLKNSTEPIYAKVNKKKTGQVASPEEPIYTQVAKKVNAKIDRLNQIASGLGGVGQAAGFPLKRHDKVDDLSKVGLSASPEPIYATIDDLGGPFPLKRHDKVDDLSKVGRSRNQELAQKIDNLNQAVSEAKAGFFGNLEQTIDKLKDSTKKNVMNLYVESAKKVPASLSAKLDNYAINSHTRINSNIQNGAINEKATGMLTQKNPEWLKLVNDKIVAHNVGSVSLSEYDKIGFNQKNMKDYSDSFKFSTKLNNAVKDIKSGFTHFLANAFSTGYYCLARENAEHGIKNVNTKGGFQKS

Variants of B1 are the subject of this experiment. The following applies: with mark2_human MARK2, Q7KZI7.
Sequence of mark2_human MARK2, Q7KZI7 (Q7KZI7 whole entry): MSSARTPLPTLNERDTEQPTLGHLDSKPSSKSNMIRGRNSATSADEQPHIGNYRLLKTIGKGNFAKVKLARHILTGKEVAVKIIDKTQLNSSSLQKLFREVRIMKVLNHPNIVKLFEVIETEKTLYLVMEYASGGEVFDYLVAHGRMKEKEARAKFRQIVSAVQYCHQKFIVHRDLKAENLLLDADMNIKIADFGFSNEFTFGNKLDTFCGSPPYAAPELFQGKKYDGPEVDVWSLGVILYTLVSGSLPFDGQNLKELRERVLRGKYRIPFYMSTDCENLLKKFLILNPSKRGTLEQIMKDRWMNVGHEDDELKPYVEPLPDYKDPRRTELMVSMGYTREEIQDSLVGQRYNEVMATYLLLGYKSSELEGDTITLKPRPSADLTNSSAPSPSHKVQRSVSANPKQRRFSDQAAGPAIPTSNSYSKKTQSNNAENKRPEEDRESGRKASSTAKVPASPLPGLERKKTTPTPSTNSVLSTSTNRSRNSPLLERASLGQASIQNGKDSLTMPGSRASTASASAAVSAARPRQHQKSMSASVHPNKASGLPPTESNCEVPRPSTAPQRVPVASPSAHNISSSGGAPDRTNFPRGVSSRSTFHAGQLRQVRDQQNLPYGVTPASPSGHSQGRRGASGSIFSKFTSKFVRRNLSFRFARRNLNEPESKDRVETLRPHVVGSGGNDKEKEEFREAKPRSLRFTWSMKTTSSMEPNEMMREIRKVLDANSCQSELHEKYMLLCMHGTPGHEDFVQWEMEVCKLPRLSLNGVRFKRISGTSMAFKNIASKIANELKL
As for L959G, the “effect of a mutation on the interaction” value is reported as “disrupting interaction”. With R952G the entry was “decreasing interaction”; with L950G, “disrupting interaction”.

For V956G, the “effect of a mutation on the interaction” value is reported as “disrupting interaction”.
